Laboratory results: PMC12377726 (Proceedings of the National Academy of Sciences of the …, 2025)
Positions count from the first letter of the chain named.

B1: G001_gp1_V08_VRC01c_132 (antibody, V domains shown)
VH: QVQLVQSGAEVKKPGASVKVSCKASGYTFSGYYMHWVRQAPGQGLEWMGWINPNSGGTNYAQKFQGWVTMTRDTSISTAYMELSRLKSDDTAVYYCARVEHTSGWCFDSWGQGTLVTVSS
VL: DIQMTQSPSSLSASVGDRVTITCQASQDISNYLNWYQQKPGKAPKLLISDASNLETGVPSRFSGSGSGTDFTFTISSLQPEDIATYYCQQYDIFGPGTKVEIK
B2: G001_gp1_V08_VRC01c_2021-0053 (antibody, V domains shown)
VH: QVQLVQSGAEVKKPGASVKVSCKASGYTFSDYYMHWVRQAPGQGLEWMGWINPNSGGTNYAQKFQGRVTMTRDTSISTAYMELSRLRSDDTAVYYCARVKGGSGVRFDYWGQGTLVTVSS
VL: B1 VL with S49Y, P59T, D92V, I93T, P96G
B3: G001_gp1_V08_VRC01c_135 (antibody, V domains shown)
VH: QVQLVQSGAEVKKPGASVKVSCKASGYIFTGYYMHWVRQAPGQGLEWMGWINPNSGGTNYAQKFQGWVTMTRDTSISTAYMELSRLRSDDTAVYYCASSVGVPAARGWAFDMWGQGTMVTVSS
VL: B1 VL with S49Y, N53D, I93L, E101D
B4: G001_gp1_V08_VRC01c_147 (antibody, V domains shown)
VH: QVQLVQSGAEVKQPGASVKVSCKASGYTFTGYYIHWIRQAPGQGLEWMGWINPKSGGTNYARNFQGRVTMTRDTSISTSYLLLSRLRSDDTAVYYCFRGAEGWLLKYWGQGTLVTVSS
VL: B1 VL with S49Y, Y87F, Q90H, D92E, I93F, E101D
B5: G001_gp1_V08_VRC01c_153 (antibody, V domains shown)
VH: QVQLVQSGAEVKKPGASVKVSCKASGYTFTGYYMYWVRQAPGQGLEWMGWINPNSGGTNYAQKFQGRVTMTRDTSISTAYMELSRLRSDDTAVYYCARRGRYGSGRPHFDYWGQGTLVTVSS
VL: B1 VL with S26T, Q38H, S49Y, N53T, E55V, S67Y, Q90E, D92L, I93L, P96G
B6: G001_gp1_V08_VRC01c_2021-0052 (antibody, V domains shown)
VH: QVQLVQSGAEVKKPGASVKVSCKASGHTFSGYYMHWVRQAPGQGLEWMGWINPNSGGTNYAQKFQGRVTMTRDTSISTAYMELSRLRTYDTAVYYCARAYSSGWRFGWGQGTMVTVSS
VL: B1 VL with S30T, N31K, K42Q, S49Y, D70Y, I93N, P96G
B7: G001_gp1_V08_VRC01c_144 (antibody, V domains shown)
VH: QVQLVQSGAEVKKPGASVKVSCKASGYTFSGHYMHWVRQAPGQGLEWMGWINPNSGGTNYAQKFQGRVTMTRDTSISSAYMELSRLRSDDTAVYYCATHTGSGSSWSFDSWGQGTLVTVSS
VL: B1 VL with S49Y, D92E, I93Y, P96Q, K99R, V100L
B8: G001_gp1_V08_VRC01c_130 (antibody, V domains shown)
VH: QVQLVQSGAEVKKPGASVKVSCKASGYTFTGYYMHWVRQAPGQGLEWLGWINPNSGGTNYAQKFQGWVTMTRDTSISTAYMELSRLRSDDTAVYYCATVAGYSSSWQRGWAFDIWGQGTMVTVSS
VL: EIVLTQSPGTLSLSPGEGATLSCRASQSVSSSSLAWYQQKPGQAPRLLIYGASSRATGIPDRFSGSGSGTDFTLTISRLEPEDFAVYYCQLYETFGQGTKVEIK
B9: G001_gp1_V08_VRC01c_139 (antibody, V domains shown)
VH: QVQLVQSGAEVKKPGASVKVSCKASGYTFTGSYMHWVRQAPGQGLEWMGWINPNSGGTNYAQKFQGRVTLTRDTSISTAYMELTRLRSDDTTVFYCATSRSGDWYFDLWGRGTLVTVSS
VL: B8 VL with G18R, V29A, S33Y, V86M, L91Q, V101L
B10: G001_gp1_V08_VRC01c_151 (antibody, V domains shown)
VH: QVQLVQSGAEVKKPGASVKVSCKASGYTFTDYYMHWVRQTPGQGLEWMGWMNPKSGGTNYALQFQGRVTMTRDTSISTAYMELSRLRSDDTAIYYCATKAYTNRAFDIWGQGTMVTVSS
VL: B8 VL with G18R, S30N, S32N, Y50F, G51A, S53Y, S54T, L91Q, E93D
B11: G001_gp1_V08_VRC01c_145 (antibody, V domains shown)
VH: QVQLVQSGAEVKKPGASVKVSCRASGYTFTAYYIHWVRQAPGQGLEWMGWINPNSGGTNYAQKFQGRVTMTRDTSISTAYMELRRLRSDDTAVYYCARRFVSSGYYYAYWGQGTLVTVSS
VL: B8 VL with G18R, S33Y, I49F, V86I, L91H
B12: G001_gp1_V08_VRC01c_158 (antibody, V domains shown)
VH: QVQLVQSGAEVKKPGASVKVSCKASGYTFTDYYMHWVRQAPGQGLEWMGWLNPNSGGTNYAQKFQDWVTMTRDTSIRTAYLELSRLKLDDTAIYYCARRIDYLDAFDIWGQGTMVTVSS
VL: B8 VL with G18R, S31R, S32R, S33Y, P41T, L91Q, T94M
B13: G001_gp1_V08_VRC01c_131 (antibody, V domains shown)
VH: QVQLVQSGAEVKKPGASVKVSCKASGYTFTDYYIYWLRQAPGHGLEWMGWINPNSGGTNYAQKFQDWVTMTRDTSISTAYMELSRLSSDDTAVYYCARRNDYLGGSYRYSAFDIWGQGTMVTVSS
VL: B8 VL with G18R, S28K, S32R, S33Y, L91Q, V101L
B14: G001_gp1_V08_VRC01c_133 (antibody, V domains shown)
VH: QVQLVQSGAEVKKPGASVKVSCKASGYTFTDYYLHWVRQAPGQGLEWMGWINPNSGGTNYARKFQDWVTMTRDTSISTAYMELSRLRSDDTAVYYCARGKTTVSWYFEYWAQGTLVTVSS
VL: B8 VL with G18R, S33Y, F84S, L91Q
B15: G001_gp1_V08_VRC01c_149 (antibody, V domains shown)
VH: QVQLVQSGAEVKKPGASVKVSCKTSGYTFTDYYMHWVRQAPGQGLEWMGWINPNSGGTNYAQKFQGRVTMTRDTSIRTVYMELSWLRSDDTAVFYCARHYRSSGWDFDYWGQGTLVTVSS
VL: DIVLTQSPDSLTVSLGERATINCKSSPSGLYSSNNKNYLTWYQQKPGQPPKLLIYWASTRESGVPDRFSGSGSGTDFTLTISSLQAEDVAVYYCQQYETFGGGTKVEIK
B16: G001_gp1_V08_VRC01c_136 (antibody, V domains shown)
VH: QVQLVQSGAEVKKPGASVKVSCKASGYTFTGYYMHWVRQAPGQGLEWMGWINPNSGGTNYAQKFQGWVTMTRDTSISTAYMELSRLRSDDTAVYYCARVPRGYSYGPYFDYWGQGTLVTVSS
VL: EIVMTQSPATLSVSPGERATLSCRASQSVSSNLAWYQQKPGQAPRLLIYGASTRATGIPARFSGSGSGTEFTLTISSLQSEDFAVYYCQQYSTFGGGTKVEIK
B17: G001_gp1_V08_VRC01c_143 (antibody, V domains shown)
VH: QVQLVQSGAEVRKPGASVKVSCKASGFTFSDYYIHWVRQAPGQGLEWMGWINPNSGGTNYARKFQGRVTMTRDRSISTAYMELSRLRSDDTAVYYCARGLHTSGWYFAFWGQGTLVTVSS
VL: DIQMTQSPSSLSASVGDRVTITCQARQDTSNYLHWYQQKPGKAPKLLIYDASKLEPGVPSRFSGSGSGTDFTFTISNLQPEDIGTYYCQQYEAFGGGTKVEIK
B18: G001_gp1_V08_VRC01c_2021-0055 (antibody, V domains shown)
VH: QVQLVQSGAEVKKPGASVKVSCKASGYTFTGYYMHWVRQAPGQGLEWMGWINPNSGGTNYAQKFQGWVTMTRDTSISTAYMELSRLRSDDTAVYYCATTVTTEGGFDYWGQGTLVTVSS
VL: QSALTQPPSASGSPGQSVTISCTGTSSDVGGYNYVSWYQQHPGKAPKLMIYEVSKRPSGVPDRFSGSKSGNTASLTVSGLQAEDEADYYCSSYEVFGTGTKVTVL
B19: G001_gp1_V08_VRC01c_138 (antibody, V domains shown)
VH: QVQLVQSGAEVKKPGASVKVSCKASGYTFTDYYMYWVRQAPGQGLEWMGWINPNSGGTNYAQKFQGRVTMTRDTSISTAYMELSGLRSDDTAVYYCARRPNPYSGYDSNAFDIWGQGTMVTVSS
VL: DIQMTQSPSTLSASVGDRVTITCRASQSISSWLAWYQQKPGKAPKLLIYKASSLESGVPSRFSGSGSGTEFTLTISSLQPDDSATYYCQQYETFGQGTKVEIK
B20: G001_gp1_V08_VRC01c_141 (antibody, V domains shown)
VH: QVQLVQSGAEVKKPGASVKVSCKASGYSFTDYYMHWVRQAPGQGLEWMGWINPNSGGSNYAQKFQGRVTMTRDSFISTAYMELSRLRSDDTAVYYCAYYDSGTYRYWGQGTLVTVSS
VL: B19 VL with Y36F, S83F
B21: G001_gp1_V08_VRC01c_146 (antibody, V domains shown)
VH: B19 VH with S77T, L83V, S84R, G85R, V93M, S108F
VL: B19 VL with S31N, A51T, S53N, S56G, S83L, T93M
B22: G001_gp1_V08_VRC01c_140 (antibody, V domains shown)
VH: QVQLVQSGAEVKMPGTSVKVSCKASGYTFTDYYMHWVRQAPGQGLEWMGWINPNSGGTNYEQRFQGRVTMTRDTSISTAYMDLRRLRSDDTAVYYCATSLVETSTHWAFDLWGQGTMVTVSS
VL: B19 VL with I2F, A25T, I29F, S31T, K50E, E55Q, S83L, E101A
B23: G001_gp1_V08_VRC01c_134 (antibody, V domains shown)
VH: QVQLVQSGAEVKKPGASVKVSCKASGYTFTDYYMHWVRQAPGQGLEWMGWINPNSGGTNYAQKFQGWVTMTRDTSISTAYMELSRLTSDDTAVYYCATSIKATNYNWNFDLWGRGTLVTVSS
VL: EIVLTQSPGTLSLSPGERATLSCRASQSVTSNLAWYQQKPGQAPRLLIYGASSRATGIPDRFSGSGSGTDFTLTISRLEPEDFAVYYCQQYESFGQGTKLEIK
B24: G001_gp1_V08_VRC01c_142 (antibody, V domains shown)
VH: QVQLVQSGAEVKKPGASVKVSCKASGYTFTGDYMHWVRQAPGQGLEWMGWINPNSGGTNYAQKFQGWVTMTRDTSISTAYMEVRLRSDDTAVYYCARAGYSSSWGFGFWGQGTLVTVSS
VL: QSVLTQPPSVSGAPGERVTISCTGSSSNIGAGYDVHWYQQLPGTAPKLLIFGTSNRPSGVPDRFSGSKSGTSASLAITGLQAEDEADYYCQSYEFFGGGTKLTVL

molecular target: eOD-GT8 (engineered outer domain germline-targeting version 8), monomer (HIV-1 gp120 engineered outer domain, …)

Binder | binding result
B1 | binds
B2 | binds
B3 | binds
B4 | binds
B5 | binds
B6 | binds
B7 | binds
B8 | binds
B9 | binds
B10 | binds
B11 | binds
B12 | binds
B13 | binds
B14 | binds
B15 | binds
B16 | binds
B17 | binds
B18 | binds
B19 | binds
B20 | binds
B21 | binds
B22 | binds
B23 | binds
B24 | binds
